Measured values: the RNAGym collection of RNA variant scans (doi:10.7554/elife.80360)

B1: Hairpin Ribozyme (parent)
chain: GUCCUCUUUCACGUGCGCGUGAAAGAGAGAAGUGAACCAGAGAAACACACGUUGUGGUAUAUUACCUGGUA

Variants of: B1
Assay: self-cleavage, relative activity (ratio to wild type); higher = more cleavage; co-transcriptional
With GUCCUCUUUCACGUGCGAGUGAAAGAGAGAAGUGAACCAGAGAAAUACACGUUGUGGUAUAUUACCUGGUA [C18A C46U] the self-cleavage was 0.1.
Work on GUCCUCUUUCACGUGCGAGUGAAAGAGAGAAGUGAACCAGAGAAAAACACGUUGUGGUAUAUUACCUGGUA [C18A C46A] yielded a self-cleavage of 0.231.
With GUCCUCUUUCACGUGCGAGUGAAAGAGAGAAGUGAACCAGAGAAACACACGUUGUGGUAUAUUAACUGGUA [C18A C65A] the self-cleavage was 0.957.
Variant GUCCUCUUUCACGUGCGAGUGAAAGAGAGAAGUGAACCAGAGAAACACACGUUGUGGUAUAUUACCUGGUG [C18A A71G] has a self-cleavage of 1.14.
In the case of GUCCUCUUUCACGUGCGAGUGAAAGAGAGAAGUGAACCAGAGAAACACACGUUGUGGUAUAUUACCUGAUA [C18A G69A], the self-cleavage is reported as 0.455.
For GUCCUCUUUCACGUGCGAGGGAAAGAGAGAAGUGAACCAGAGAAACACACGUUGUGGUAUAUUACCUGGUA [C18A U20G], the self-cleavage was 0.946.
Variant GUCCUCUUUCACGUGCGAGAGAAAGAGAGAAGUGAACCAGAGAAACACACGUUGUGGUAUAUUACCUGGUA [C18A U20A] has a self-cleavage of 0.917.
For GUCCUCUUUCACGUGCGAGUGAAAGAGAGAAGUAAACCAGAGAAACACACGUUGUGGUAUAUUACCUGGUA [C18A G34A], the self-cleavage was 1.33.
Work on GUCCUCUUUCACGUGCGAGUGAAAGAGAGAAGUGAACCAGAGAAACACACAUUGUGGUAUAUUACCUGGUA [C18A G51A] yielded a self-cleavage of 1.01.
Variant GUCCUCUUUCACGUGCGAGUGAAAGAGAGAAGUGAACCAGAGAAACACACGUAGUGGUAUAUUACCUGGUA [C18A U53A] has a self-cleavage of 1.02.
For GUCCUCUUUCACGUGCGAGUGAAAGAGAGAAGUGAACCAGAGAAACACACGUUGUGGUAUAUUACCUUGUA [C18A G68U], the self-cleavage was 0.239.
Variant GUCCUCUUUCACGUGCGAGUGAAAGAGAGAAGCGAACCAGAGAAACACACGUUGUGGUAUAUUACCUGGUA [C18A U33C] has a self-cleavage of 0.132.
Work on GUCCUCUUUCACGUGCGAGUGAAAGAGAGAAGGGAACCAGAGAAACACACGUUGUGGUAUAUUACCUGGUA [C18A U33G] yielded a self-cleavage of 0.15.
GUCCUCUUUCACGUGCGAGUGAAAGAGAGAAGAGAACCAGAGAAACACACGUUGUGGUAUAUUACCUGGUA [C18A U33A] showed a self-cleavage of 0.115.
Variant GUCCUCUUUCACGUGCGAGUGAAAGAGAGAAAUGAACCAGAGAAACACACGUUGUGGUAUAUUACCUGGUA [C18A G32A] has a self-cleavage of 0.169.
For GUCCUCUUUCACGUGCGAGUGAAAAAGAGAAGUGAACCAGAGAAACACACGUUGUGGUAUAUUACCUGGUA [C18A G25A], the self-cleavage was 0.681.
GUCCUCUUUCACGUGCGAGUGAAAGAGAGAAGUGAACCAGAGAAACACACGUUGUGGUUUAUUACCUGGUA [C18A A59U] showed a self-cleavage of 0.242.
Work on GUCCUCUUUCACGUGCGAGUGAAAGAGAGAAGUGAACCAGAGAAACACACGUUGUGGUGUAUUACCUGGUA [C18A A59G] yielded a self-cleavage of 0.272.
GUCCUCUUUCACGUGCGAGUGAAAGAGAGAAGUGAACCAGAGAAACACACGGUGUGGUAUAUUACCUGGUA [C18A U52G] showed a self-cleavage of 0.86.
Variant GUCCUCUUUCACGUGCGAGUGAAAGAGAGAAGUGAACCAGAGAAACACACGAUGUGGUAUAUUACCUGGUA [C18A U52A] has a self-cleavage of 1.07.
GUCCUCUUUCACGUGCGAGUGAAAGAGAGAAGUGAACCAGAGAAACAAACGUUGUGGUAUAUUACCUGGUA [C18A C48A] gave a self-cleavage of 0.14.
For GUCCUCUUUCACGUGCGAGUUAAAGAGAGAAGUGAACCAGAGAAACACACGUUGUGGUAUAUUACCUGGUA [C18A G21U], the self-cleavage was 0.669.
Variant GUCCUCUUUCACGUGCGAGUGAAAGAGAGAAGUGAACCAGAGAAACACACGUUCUGGUAUAUUACCUGGUA [C18A G54C] has a self-cleavage of 0.395.
In the case of GUCCUCUUUCACGUGCGAGUGAAAGAGAGAAGUGAACAAGAGAAACACACGUUGUGGUAUAUUACCUGGUA [C18A C38A], the self-cleavage is reported as 0.132.
GUCCUCUUUCACGUGCGAGUGAAAGAGAGAAGUGAACCAGAGAAACACACGUUGUGGUAUAUUACAUGGUA [C18A C66A] showed a self-cleavage of 0.258.
For GUCCUCUUUCACGUGCGAGUGAAAGAGAGAAGUGAACCAGAGAAACACACGUUGUGGUAUAUUACUUGGUA [C18A C66U], the self-cleavage was 0.594.
GUCCUCUUUCACGUGCGAGUGAAAGAGAGAAGUGAACCAGAGAAACACACGUUGUGGUAUAUUACGUGGUA [C18A C66G] gave a self-cleavage of 0.113.
In the case of GUCCUCUUUCACGUGCGAAUGAAAGAGAGAAGUGAACCAGAGAAACACACGUUGUGGUAUAUUACCUGGUA [C18A G19A], the self-cleavage is reported as 0.886.
Variant GUCCUCUUUCACGUGCGAGUGAAAGAGAGAAGUGAACCACAGAAACACACGUUGUGGUAUAUUACCUGGUA [C18A G40C] has a self-cleavage of 0.0959.
Variant GUCCUCUUUCACGUGCGAGUGAAAGAGAGAAGUGAACCAGAGAAACACACGUUGUAGUAUAUUACCUGGUA [C18A G56A] has a self-cleavage of 0.158.
Work on GUCCUCUUUCACGUGCGAGUGAAAGAGAGAAGUGAACCAGAGAAACACACGUUGUUGUAUAUUACCUGGUA [C18A G56U] yielded a self-cleavage of 0.196.
For GUCCUCUUUCACGUGCGAGUGAAAGAGAGAAGUGAACCAGAGAAACACAAGUUGUGGUAUAUUACCUGGUA [C18A C50A], the self-cleavage was 0.314.
With GUCCUCUUUCACGUGCGAGUGAAAGAGAGAAGUGAACCAGAGAAACACAUGUUGUGGUAUAUUACCUGGUA [C18A C50U] the self-cleavage was 0.428.
With GUCCUCUUUCACGUGCGAGUGAAAGAGAUAAGUGAACCAGAGAAACACACGUUGUGGUAUAUUACCUGGUA [C18A G29U] the self-cleavage was 0.198.
In the case of GUCCUCUUUCACGUGCGAGUGAAAGAGAGAAGUGAAUCAGAGAAACACACGUUGUGGUAUAUUACCUGGUA [C18A C37U], the self-cleavage is reported as 0.64.
Work on GUCCUCUUUCACGUGCGAGUGAAAGAGAGAAGUGAACCAGAGAAACACACGUUGUGGUAUAUUCCCUGGUA [C18A A64C] yielded a self-cleavage of 0.19.
GUCCUCUUUCACGUGCGAGUGAAAGAGAGAAGUGAACCAGACAAACACACGUUGUGGUAUAUUACCUGGUA [C18A G42C] showed a self-cleavage of 0.35.
For GUCCUCUUUCACGUGCGAGUGAAAGAGAGAAGUGAACCAGAUAAACACACGUUGUGGUAUAUUACCUGGUA [C18A G42U], the self-cleavage was 0.369.
